Earlier results, collected in PMC6295873 (Chemical Science, 2018).

What was measured:
[1] = MUC1-based anticancer-vaccines; ref 39 (preceding sentence)

Row | Substance | half-life in blood [min] | immunogenicity [1]
1 | KP10: endogenous neuropeptide acting through its cognate G-protein-coupled receptor, KiSS1R | < 1 | –
2 | natural MUC1 glycoprotein: densely O-glycosylated human mucin glycoprotein | – | very low immunogenicity
